# T1: TIGIT (human)
# T1 chain: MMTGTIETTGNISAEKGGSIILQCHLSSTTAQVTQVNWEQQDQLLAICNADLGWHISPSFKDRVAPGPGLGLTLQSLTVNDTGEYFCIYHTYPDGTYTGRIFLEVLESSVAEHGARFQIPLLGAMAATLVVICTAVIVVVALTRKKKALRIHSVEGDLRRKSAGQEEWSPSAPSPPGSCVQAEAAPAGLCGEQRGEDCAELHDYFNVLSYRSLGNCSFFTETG
# Target: T1, TIGIT
# Assay: cell-based or functional assay
row,"IL-2 luciferase reporter, Normalized Fold Change from CD155-ECD, proteins at 50 nM",Binder
1,2.6 fold,"variant CD155 IgV-Fc V11A, P18S, S54R, Q60P, Q62K, L79P, N85D, F91S, T107M (Fc fusion) WPPPGTGDVVAQAPTQVSGFLGDSVTLPCYLQVPNMEVTHVSQLTWARHGESGRMAVFHPTKGPSYSESKRLEFVAARPGAELRDASLRMSGLRVEDEGNYTCLFVMFPQGSRSVDIWLRVLGSGGGGSEPKSSDKTHTCPPCPAPEAEGAPSVFLFPPKPKDTLMISRTPEVTCVVVDVSHEDPEVKFNWYVDGVEVHNAKTKPREEQYNSTYRVVSVLTVLHQDWLNGKEYKCKVSNKALPAPIEKTISKAKGQPREPQVYTLPPSRDELTKNQVSLTCLVKGFYPSDIAVEWESNGQPENNYKTTPPVLDSDGSFFLYSKLTVDKSRWQQGNVFSCSVMHEALHNHYTQKSLSLSPGK"
2,0.4 fold,"variant CD155 IgV-Fc V11A, P18S, L79P, F91S, L104M, G111R (Fc fusion) WPPPGTGDVVAQAPTQVSGFLGDSVTLPCYLQVPNMEVTHVSQLTWARHGESGSMAVFHQTQGPSYSESKRLEFVAARPGAELRNASLRMSGLRVEDEGNYTCMFVTFPQRSRSVDIWLRVLGSGGGGSEPKSSDKTHTCPPCPAPEAEGAPSVFLFPPKPKDTLMISRTPEVTCVVVDVSHEDPEVKFNWYVDGVEVHNAKTKPREEQYNSTYRVVSVLTVLHQDWLNGKEYKCKVSNKALPAPIEKTISKAKGQPREPQVYTLPPSRDELTKNQVSLTCLVKGFYPSDIAVEWESNGQPENNYKTTPPVLDSDGSFFLYSKLTVDKSRWQQGNVFSCSVMHEALHNHYTQKSLSLSPGK"

# Further lines, the binder ahead of its results:
row,Binder,"IL-2 luciferase reporter, Normalized Fold Change from CD155-ECD, proteins at 50 nM"
1,"variant CD155 IgV-Fc P18S, A47G, L79P, F91S, L104M, T107A, R113W (Fc fusion) WPPPGTGDVVVQAPTQVSGFLGDSVTLPCYLQVPNMEVTHVSQLTWGRHGESGSMAVFHQTQGPSYSESKRLEFVAARPGAELRNASLRMSGLRVEDEGNYTCMFVAFPQGSWSVDIWLRVLGSGGGGSEPKSSDKTHTCPPCPAPEAEGAPSVFLFPPKPKDTLMISRTPEVTCVVVDVSHEDPEVKFNWYVDGVEVHNAKTKPREEQYNSTYRVVSVLTVLHQDWLNGKEYKCKVSNKALPAPIEKTISKAKGQPREPQVYTLPPSRDELTKNQVSLTCLVKGFYPSDIAVEWESNGQPENNYKTTPPVLDSDGSFFLYSKLTVDKSRWQQGNVFSCSVMHEALHNHYTQKSLSLSPGK",5 fold
2,"variant CD155 IgV-Fc P18T, D23G, S24A, N35D, H49L, L79P, F91S, L104M, G111R (Fc fusion) WPPPGTGDVVVQAPTQVTGFLGGAVTLPCYLQVPDMEVTHVSQLTWARLGESGSMAVFHQTQGPSYSESKRLEFVAARPGAELRNASLRMSGLRVEDEGNYTCMFVTFPQRSRSVDIWLRVLGSGGGGSEPKSSDKTHTCPPCPAPEAEGAPSVFLFPPKPKDTLMISRTPEVTCVVVDVSHEDPEVKFNWYVDGVEVHNAKTKPREEQYNSTYRVVSVLTVLHQDWLNGKEYKCKVSNKALPAPIEKTISKAKGQPREPQVYTLPPSRDELTKNQVSLTCLVKGFYPSDIAVEWESNGQPENNYKTTPPVLDSDGSFFLYSKLTVDKSRWQQGNVFSCSVMHEALHNHYTQKSLSLSPGK",3.2 fold
3,"variant CD155 IgV-Fc P18T, S52P, S65A, S67V, L79P, F91S, L104M, G111R (Fc fusion) WPPPGTGDVVVQAPTQVTGFLGDSVTLPCYLQVPNMEVTHVSQLTWARHGEPGSMAVFHQTQGPAYVESKRLEFVAARPGAELRNASLRMSGLRVEDEGNYTCMFVTFPQRSRSVDIWLRVLGSGGGGSEPKSSDKTHTCPPCPAPEAEGAPSVFLFPPKPKDTLMISRTPEVTCVVVDVSHEDPEVKFNWYVDGVEVHNAKTKPREEQYNSTYRVVSVLTVLHQDWLNGKEYKCKVSNKALPAPIEKTISKAKGQPREPQVYTLPPSRDELTKNQVSLTCLVKGFYPSDIAVEWESNGQPENNYKTTPPVLDSDGSFFLYSKLTVDKSRWQQGNVFSCSVMHEALHNHYTQKSLSLSPGK",3.6 fold
4,"variant CD155 IgV-Fc P18T, M36T, L79P, F91S, G111R (Fc fusion) WPPPGTGDVVVQAPTQVTGFLGDSVTLPCYLQVPNTEVTHVSQLTWARHGESGSMAVFHQTQGPSYSESKRLEFVAARPGAELRNASLRMSGLRVEDEGNYTCLFVTFPQRSRSVDIWLRVLGSGGGGSEPKSSDKTHTCPPCPAPEAEGAPSVFLFPPKPKDTLMISRTPEVTCVVVDVSHEDPEVKFNWYVDGVEVHNAKTKPREEQYNSTYRVVSVLTVLHQDWLNGKEYKCKVSNKALPAPIEKTISKAKGQPREPQVYTLPPSRDELTKNQVSLTCLVKGFYPSDIAVEWESNGQPENNYKTTPPVLDSDGSFFLYSKLTVDKSRWQQGNVFSCSVMHEALHNHYTQKSLSLSPGK",4.1 fold
5,"variant CD155 IgV-Fc V9L, P18S, Q60R, V75L, L79P, R89K, F91S, L104E, G111R (Fc fusion) WPPPGTGDLVVQAPTQVSGFLGDSVTLPCYLQVPNMEVTHVSQLTWARHGESGSMAVFHRTQGPSYSESKRLEFLAARPGAELRNASLKMSGLRVEDEGNYTCEFVTFPQRSRSVDIWLRVLGSGGGGSEPKSSDKTHTCPPCPAPEAEGAPSVFLFPPKPKDTLMISRTPEVTCVVVDVSHEDPEVKFNWYVDGVEVHNAKTKPREEQYNSTYRVVSVLTVLHQDWLNGKEYKCKVSNKALPAPIEKTISKAKGQPREPQVYTLPPSRDELTKNQVSLTCLVKGFYPSDIAVEWESNGQPENNYKTTPPVLDSDGSFFLYSKLTVDKSRWQQGNVFSCSVMHEALHNHYTQKSLSLSPGK",1.8 fold

# Target: T1, TIGIT
# Assay: cell-based or functional assay
# Remark: another data set of the same source
row,"IL-2 luciferase reporter, Normalized Fold Change from CD155-ECD",Binder
1,1.2 fold,"variant CD155 IgV-Fc V9L, P18Y, V25A, V38G, M55V, A77T, L79P, M90I, F91S, L104M (Fc fusion) WPPPGTGDLVVQAPTQVYGFLGDSATLPCYLQVPNMEGTHVSQLTWARHGESGSVAVFHQTQGPSYSESKRLEFVATRPGAELRNASLRISGLRVEDEGNYTCMFVTFPQGSRSVDIWLRVLGSGGGGSEPKSSDKTHTCPPCPAPEAEGAPSVFLFPPKPKDTLMISRTPEVTCVVVDVSHEDPEVKFNWYVDGVEVHNAKTKPREEQYNSTYRVVSVLTVLHQDWLNGKEYKCKVSNKALPAPIEKTISKAKGQPREPQVYTLPPSRDELTKNQVSLTCLVKGFYPSDIAVEWESNGQPENNYKTTPPVLDSDGSFFLYSKLTVDKSRWQQGNVFSCSVMHEALHNHYTQKSLSLSPGK"
2,2.1 fold,"variant CD155 IgV-Fc V11A, P18T, N35S, L79P, S87T, F91S (Fc fusion) WPPPGTGDVVAQAPTQVTGFLGDSVTLPCYLQVPSMEVTHVSQLTWARHGESGSMAVFHQTQGPSYSESKRLEFVAARPGAELRNATLRMSGLRVEDEGNYTCLFVTFPQGSRSVDIWLRVLGSGGGGSEPKSSDKTHTCPPCPAPEAEGAPSVFLFPPKPKDTLMISRTPEVTCVVVDVSHEDPEVKFNWYVDGVEVHNAKTKPREEQYNSTYRVVSVLTVLHQDWLNGKEYKCKVSNKALPAPIEKTISKAKGQPREPQVYTLPPSRDELTKNQVSLTCLVKGFYPSDIAVEWESNGQPENNYKTTPPVLDSDGSFFLYSKLTVDKSRWQQGNVFSCSVMHEALHNHYTQKSLSLSPGK"
3,-0.6 fold,"variant CD155 IgV-Fc V11E, P18H, F20Y, V25E, N35S, H49R, L79P, F91S, T107M, G111R (Fc fusion) WPPPGTGDVVEQAPTQVHGYLGDSETLPCYLQVPSMEVTHVSQLTWARRGESGSMAVFHQTQGPSYSESKRLEFVAARPGAELRNASLRMSGLRVEDEGNYTCLFVMFPQRSRSVDIWLRVLGSGGGGSEPKSSDKTHTCPPCPAPEAEGAPSVFLFPPKPKDTLMISRTPEVTCVVVDVSHEDPEVKFNWYVDGVEVHNAKTKPREEQYNSTYRVVSVLTVLHQDWLNGKEYKCKVSNKALPAPIEKTISKAKGQPREPQVYTLPPSRDELTKNQVSLTCLVKGFYPSDIAVEWESNGQPENNYKTTPPVLDSDGSFFLYSKLTVDKSRWQQGNVFSCSVMHEALHNHYTQKSLSLSPGK"

# Second part, the binder before the results:
row,Binder,"IL-2 luciferase reporter, Normalized Fold Change from CD155-ECD"
1,"variant CD155 IgV-Fc P18T, S52A, V57A, Q60R, Q62K, S65C, L79P, F91T, N100Y, T107M (Fc fusion) WPPPGTGDVVVQAPTQVTGFLGDSVTLPCYLQVPNMEVTHVSQLTWARHGEAGSMAAFHRTKGPCYSESKRLEFVAARPGAELRNASLRMTGLRVEDEGYYTCLFVMFPQGSRSVDIWLRVLGSGGGGSEPKSSDKTHTCPPCPAPEAEGAPSVFLFPPKPKDTLMISRTPEVTCVVVDVSHEDPEVKFNWYVDGVEVHNAKTKPREEQYNSTYRVVSVLTVLHQDWLNGKEYKCKVSNKALPAPIEKTISKAKGQPREPQVYTLPPSRDELTKNQVSLTCLVKGFYPSDIAVEWESNGQPENNYKTTPPVLDSDGSFFLYSKLTVDKSRWQQGNVFSCSVMHEALHNHYTQKSLSLSPGK",2.1 fold
2,"variant CD155 IgV-Fc V9A, P18F, T61S, Q62L, L79P, F91S, G111R (Fc fusion) WPPPGTGDAVVQAPTQVFGFLGDSVTLPCYLQVPNMEVTHVSQLTWARHGESGSMAVFHQSLGPSYSESKRLEFVAARPGAELRNASLRMSGLRVEDEGNYTCLFVTFPQRSRSVDIWLRVLGSGGGGSEPKSSDKTHTCPPCPAPEAEGAPSVFLFPPKPKDTLMISRTPEVTCVVVDVSHEDPEVKFNWYVDGVEVHNAKTKPREEQYNSTYRVVSVLTVLHQDWLNGKEYKCKVSNKALPAPIEKTISKAKGQPREPQVYTLPPSRDELTKNQVSLTCLVKGFYPSDIAVEWESNGQPENNYKTTPPVLDSDGSFFLYSKLTVDKSRWQQGNVFSCSVMHEALHNHYTQKSLSLSPGK",1.3 fold
3,"variant CD155 IgV-Fc P18S, V41A, H49R, S54C, L79S, N85Y, L88P, F91S, L104M, T107M (Fc fusion) WPPPGTGDVVVQAPTQVSGFLGDSVTLPCYLQVPNMEVTHASQLTWARRGESGCMAVFHQTQGPSYSESKRLEFVAARSGAELRYASPRMSGLRVEDEGNYTCMFVMFPQGSRSVDIWLRVLGSGGGGSEPKSSDKTHTCPPCPAPEAEGAPSVFLFPPKPKDTLMISRTPEVTCVVVDVSHEDPEVKFNWYVDGVEVHNAKTKPREEQYNSTYRVVSVLTVLHQDWLNGKEYKCKVSNKALPAPIEKTISKAKGQPREPQVYTLPPSRDELTKNQVSLTCLVKGFYPSDIAVEWESNGQPENNYKTTPPVLDSDGSFFLYSKLTVDKSRWQQGNVFSCSVMHEALHNHYTQKSLSLSPGK",-1 fold
4,"variant CD155 IgV-Fc V9I, P18T, H49R, L79P, N85D, F91S, L104T, T107M (Fc fusion) WPPPGTGDIVVQAPTQVTGFLGDSVTLPCYLQVPNMEVTHVSQLTWARRGESGSMAVFHQTQGPSYSESKRLEFVAARPGAELRDASLRMSGLRVEDEGNYTCTFVMFPQGSRSVDIWLRVLGSGGGGSEPKSSDKTHTCPPCPAPEAEGAPSVFLFPPKPKDTLMISRTPEVTCVVVDVSHEDPEVKFNWYVDGVEVHNAKTKPREEQYNSTYRVVSVLTVLHQDWLNGKEYKCKVSNKALPAPIEKTISKAKGQPREPQVYTLPPSRDELTKNQVSLTCLVKGFYPSDIAVEWESNGQPENNYKTTPPVLDSDGSFFLYSKLTVDKSRWQQGNVFSCSVMHEALHNHYTQKSLSLSPGK",4 fold

# Reference: patent US20230381229A1 (ALPINE IMMUNE SCIENCES, INC., published 2023)
